# Experimental data reported in patent US20230250188A1 (NATIONAL UNIVERSITY CORPORATION KOCHI UNIVERSITY, published 2023).
# Positions count from the first letter of the chain named.
# T1: human GPC1 on the surface of GPC1-positive cancer cells (TE8, TE14, BxPC-3) (human, UniProt P35052 24-530)
# T1 sequence: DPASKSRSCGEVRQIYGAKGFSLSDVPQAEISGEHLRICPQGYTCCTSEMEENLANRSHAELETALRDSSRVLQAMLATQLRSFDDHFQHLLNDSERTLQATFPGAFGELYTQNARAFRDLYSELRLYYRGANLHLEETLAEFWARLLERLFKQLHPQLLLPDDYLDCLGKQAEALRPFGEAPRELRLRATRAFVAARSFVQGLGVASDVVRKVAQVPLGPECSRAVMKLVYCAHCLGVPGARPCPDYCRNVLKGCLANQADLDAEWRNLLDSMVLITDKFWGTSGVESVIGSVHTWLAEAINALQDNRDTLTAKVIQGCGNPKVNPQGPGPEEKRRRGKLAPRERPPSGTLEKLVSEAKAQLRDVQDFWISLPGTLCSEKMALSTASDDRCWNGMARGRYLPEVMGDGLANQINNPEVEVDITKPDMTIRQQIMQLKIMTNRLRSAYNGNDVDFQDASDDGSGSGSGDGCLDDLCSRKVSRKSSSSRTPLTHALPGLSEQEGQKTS
# T2: recombinant human GPC1 protein (R&D Systems) (human, UniProt P35052 24-530)
# T2 construct: Bought recombinant protein (R&D Systems); also called human GPC-1 antigen; Glypican-1
# T2 sequence: T1 sequence
# B1: humanized anti-GPC1 monoclonal antibody clone T1 (antibody, human IgG4 S228P, kappa, V domains shown)
# VH: QVQLVQSGAEVKKPGASVKVSCKASGYTFTGYYMHWVRQAPGQGLEWMGEINPSTGDTTYNQKFKARVTMTRDTSTSTVYMELSSLRSEDTAVYYCAREKRDDGVFAYWGQGTLVTVSS
# VL: DIVMTQSPSFLSASVGDRVTITCRASQGISSYLVWYQQKPGKAPKLLIYSASVLQSGVPSRFSGRGYGTDFTLTISSLQPEDFATYYCQQSFSIPPVTFGGGTKVEIKR
# notes: IgG
# B2: humanized anti-GPC1 monoclonal antibody clone T3 (antibody, human IgG4 S228P, kappa, V domains shown)
# VH: B1 VH
# VL: DIVMTQSPSSVSASVGDRVSITCRASEHINGWLAWYQQIPGKAPRILISSASILQSGAPSRFSGSGFGTDFTLTISSVQPEDFATYYCQQAKSYPLTFGGGTKVEIKR
# notes: IgG
# B3: humanized anti-GPC1 monoclonal antibody clone T10 (antibody, human IgG4 S228P, kappa, V domains shown)
# VH: B1 VH
# VL: B2 VL with D1E, M4L, S10T, V11L, S20T, E27Q, H28S, N30S, G31S, V104L
# notes: IgG
# B4: humanized anti-GPC1 monoclonal antibody clone T34 (antibody, human IgG4 S228P, kappa, V domains shown)
# VH: B1 VH
# VL: B2 VL with D1V, V3W, S20T, E27Q, H28A, I39K, S49Y, I53T, S56T
# notes: IgG
# B5: humanized anti-GPC1 monoclonal antibody clone T11 (antibody, human IgG4 S228P, kappa, V domains shown)
# VH: B1 VH
# VL: AIRMTQSPSSLSASVGDRVTITCRASRSISTYLHWYQQKAGKAPKLLIYSAYNLQSGVPSRFSGSGSGTDFTLTISSLQPEDFATYYCQQSYSTPYTFGQGTKVEIKR
# notes: IgG
# B6: humanized anti-GPC1 monoclonal antibody clone T28 (antibody, human IgG4 S228P, kappa, V domains shown)
# VH: B1 VH
# VL: DIQMTQSPSSLSASLGEMVTITCRASESIHSYLNWYQQKPGKAPNLLIYDASNLESGVPSRFSGSGYGTDFTLTISSLQPEDFATYYCQQSYGPPITFGQGTRLEIKR
# notes: IgG
# B7: humanized anti-GPC1 monoclonal antibody clone T43 (antibody, human IgG4 S228P, kappa, V domains shown)
# VH: B1 VH
# VL: DIVMTQSPSSLSASVGDRVTITCRASQGIRSALAWYQQKPGKAPKLLIYDASNLQSGVPSRFSGSGSGTDFTLTISDVQAEDFGTYYCQQSFGPPRTFGQGTRLEIKR
# notes: IgG
# B8: humanized anti-GPC1 monoclonal antibody clone T59 (antibody, human IgG4 S228P, kappa, V domains shown)
# VH: B1 VH
# VL: EIVMTQSPSSLSASVGDRVTITCQASQHISNKLNWYQQKPGKAPKLLIYDASNLETGVPSRFSGSGYGTDFTFTVSSLQPEDIATYYCQQYDNLPITFGQGTRLEIKR
# notes: IgG
# B9: humanized anti-GPC1 monoclonal antibody clone T31 (antibody, human IgG4 S228P, kappa, V domains shown)
# VH: B1 VH
# VL: AIQMTQSPATLSLSPGQRATLSCRASQSVSNYLAWYQQKPGQAPRLLIYDVSNRASGIPARFSGSGSGTDFTLTISSLEPEDFAIYYCQQRSNWPLTFGQGTKVDIKR
# notes: IgG
# B10: humanized anti-GPC1 monoclonal antibody clone T22 (antibody, human IgG4 S228P, kappa, V domains shown)
# VH: B1 VH
# VL: AIQMTQSPASLSASLGDRITITCRTSQTVAGYLNWYQQTPGNAPKLLIYSASNLQSGVPSRFSGSGSGRDFSLTISSLQSEDSATYYCQHSYSTPYTFGQGTKVEIKR
# notes: IgG
# B11: humanized anti-GPC1 monoclonal antibody clone T26 (antibody, human IgG4 S228P, kappa, V domains shown)
# VH: B1 VH
# VL: DVVMTQSPSSLSASVGERVTITCRASQSISSYLNWYQQKPGKAPKLLIYAASSRATGIPHRYSGSGSGTVFTLTISRLEPEDFATYYCQQFHSYPITFGQGTRLEIKR
# B12: humanized anti-GPC1 monoclonal antibody clone T32 (antibody, human IgG4 S228P, kappa, V domains shown)
# VH: B1 VH
# VL: DVVMTQSPGTLSLSPGERATLSCSASQSVSSNLAWYQQKPGQAPRLLIYGTSSRATGVPARFSGSGSGTEFTLTISSLQSEDFAAYYCQQYNSWPLTFGGGTKVEIKR
# notes: IgG
# B13: humanized anti-GPC1 monoclonal antibody clone T7 (antibody, human IgG4 S228P, kappa, V domains shown)
# VH: B1 VH
# VL: AIQLTQSPSTLSASVGDRVTITCRASQSISSWLAWYQQKPGKAPKLLISDASNLASGVPLRFSGSGFGTHFTLTIDNLQPEDIATYSCQQYNNYPFTFGLGTKLEIKR
# notes: IgG
# B14: humanized anti-GPC1 monoclonal antibody clone T33 (antibody, human IgG4 S228P, kappa, V domains shown)
# VH: B1 VH
# VL: DVVMTQSPATLSVPPGDRATLSCRASQSVSSRLAWYQQKPGQAPKLLIYGASTRATGIPARFSGSWSGTEFTLTVSSLQSEDSAVYYCQQYNDWPRYTFGQGTKLEIKR
# notes: IgG
# B15: humanized anti-GPC1 monoclonal antibody clone T29 (antibody, human IgG4 S228P, kappa, V domains shown)
# VH: B1 VH
# VL: DIVMTQSPSSLSASVGDRVTITCRASQDISSYLNWYQQKPGEAPKLLVYGASNLQRGVPPGFRGSGSGTDFTLTINNLQPEDFATYYCQQSSTSPITFGQGTRLEIKR
# notes: IgG
# B16: humanized anti-GPC1 monoclonal antibody clone T8 (antibody, human IgG4 S228P, kappa, V domains shown)
# VH: B1 VH
# VL: EIVMTQSPSSVSASVGDRVTITCRTSQSISSYLNWYQLRPGRAPKLLIYAASNLQSGVPSRFSGSGFGTDFTLTISSVQPEDFATYYCQQAKSYPLTFGGGTKVDIKR
# notes: IgG
# B17: humanized anti-GPC1 monoclonal antibody clone T36 (antibody, human IgG4 S228P, kappa, V domains shown)
# VH: B1 VH
# VL: NIQMTQSPSSLSASVGDRVTITCQASQDISNYLNWYQQRPGKAPQLLIYGASNLERGVPSRFSGSGFGTDFTLTISSVQPEDFATYYCQQAKSYPLTFGGGTKVEIKR
# notes: IgG
# B18: humanized anti-GPC1 monoclonal antibody clone T57 (antibody, human IgG4 S228P, kappa, V domains shown)
# VH: B1 VH
# VL: EIVMTQSPSSLSASVGDRVTISCRTSQTIRHYLNWYQQKPGKAPKLLIYDASNLKTGVPSRFSGSGSGTSFTLTISSLQPDDFATYYCQQSYSTPRTFGQGTKVEIKR
# notes: IgG
# B19: humanized anti-GPC1 monoclonal antibody clone T56 (antibody, human IgG4 S228P, kappa, V domains shown)
# VH: B1 VH
# VL: DIVMTQSPSTLSASVGDRVTIICRASQSIGPWLAWYQQKSGKAPKLLIYGASNLQSGVPSRFSGSGYGTDFTLTISSLQPEDFATYYCQQTSSAPFTFGPGTKVDIKR
# notes: IgG
# Molecular target: T1, human GPC1 on the surface of …
# Test: cell-based or functional assay
row,Binder,"IC50 of cytotoxicity on TE14 cells (ATP cell viability, 144 h) with MMAF-linked anti-human-IgG Fab as secondary antibody"
1,B1,0.0399 nM
2,B2,0.0526 nM
3,B3,0.0488 nM
4,B4,0.0501 nM
5,B5,0.121 nM
6,B6,0.153 nM
7,B7,0.37 nM
8,B8,0.37 nM
9,B9,0.688 nM
10,B10,0.745 nM
11,B11,0.803 nM
12,B12,0.888 nM
13,B13,0.0365 nM
14,B14,1.86 nM
15,B15,2.18 nM
16,B16,0.0379 nM
17,B17,0.0459 nM
18,B18,0.0459 nM
19,B19,0.0501 nM

# Molecular target: T2, recombinant human GPC1 protein (R&D …)
# Test: SPR (Biacore 8K); antibody captured by anti-human IgG (Fc) on a CM5 chip, recombinant human GPC1 flowed over
# Description: The mouse anti-human-GPC1 monoclonal antibody was humanized (subclass: IgG4), and the obtained twenty clones (T1, T2, T3, T7, T8, T10, T11, T22, T26, T28, T29, T31, T32, T33, T34, T36, T43, T56, T57, T59) were prepared. An anti-human IgG (Fc) was immobilized on an sCM5 sensor chip (GE Healthcare) using Human antibody capture kit (GE Healthcare), and the affinity of each of these clones to a recombinant human GPC1 protein (R&D Systems) was measured using Biacore (registered trademark) 8K (GE Healthcare).
Binder,Kd,koff,kon
B1,5.62 nM,0.00134 s⁻¹,238000 M⁻¹ s⁻¹
B2,3.11 nM,0.000713 s⁻¹,229000 M⁻¹ s⁻¹
B3,7.55 nM,0.0015 s⁻¹,199000 M⁻¹ s⁻¹
B4,22.8 nM,0.00393 s⁻¹,172000 M⁻¹ s⁻¹
B5,272 nM,0.0506 s⁻¹,186000 M⁻¹ s⁻¹
B6,21.7 nM,0.00679 s⁻¹,313000 M⁻¹ s⁻¹
B7,62.4 nM,0.0106 s⁻¹,169000 M⁻¹ s⁻¹
B8,302 nM,0.0593 s⁻¹,197000 M⁻¹ s⁻¹
B9,271 nM,0.0539 s⁻¹,198000 M⁻¹ s⁻¹
B10,218 nM,0.0506 s⁻¹,232000 M⁻¹ s⁻¹
B12,290 nM,0.0603 s⁻¹,208000 M⁻¹ s⁻¹
B13,12 nM,0.00411 s⁻¹,343000 M⁻¹ s⁻¹
B14,462 nM,0.0738 s⁻¹,160000 M⁻¹ s⁻¹
B15,324 nM,0.0664 s⁻¹,205000 M⁻¹ s⁻¹
B16,5.07 nM,0.00118 s⁻¹,234000 M⁻¹ s⁻¹
B17,9.8 nM,0.00227 s⁻¹,231000 M⁻¹ s⁻¹
B18,102 nM,0.0135 s⁻¹,132000 M⁻¹ s⁻¹
B19,6.93 nM,0.0018 s⁻¹,259000 M⁻¹ s⁻¹
